Test results from patent publication US20180155451A1 (published 2018).

T1: FcγRIIb, extracellular domain with C-terminal His tag (human, UniProt P31994 43-217)
T1 construct: extracellular domain; soluble receptor used as Biacore analyte; also called 2b; FcgRIIb
T1 sequence (looked up): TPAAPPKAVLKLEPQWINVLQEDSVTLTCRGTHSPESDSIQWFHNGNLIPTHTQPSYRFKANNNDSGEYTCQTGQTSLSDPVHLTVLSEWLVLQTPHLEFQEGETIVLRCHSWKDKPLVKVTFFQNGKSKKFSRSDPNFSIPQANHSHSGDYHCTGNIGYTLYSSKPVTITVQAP

T2: FcγRIIa R (FcγRIIa, allotype R, Arg at position 131), extracellular domain with C-terminal His tag (human, UniProt P12318 34-217)
T2 construct: extracellular domain; soluble receptor used as Biacore analyte; also called 2aR; FcgRIIa R
T2 sequence (looked up): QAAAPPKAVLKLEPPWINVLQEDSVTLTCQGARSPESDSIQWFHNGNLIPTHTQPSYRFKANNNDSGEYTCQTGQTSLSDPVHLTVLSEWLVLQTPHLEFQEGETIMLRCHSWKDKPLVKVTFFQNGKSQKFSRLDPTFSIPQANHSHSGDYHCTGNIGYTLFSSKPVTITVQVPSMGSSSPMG


How the values were obtained:
[1] = target: T1, FcγRIIb, extracellular domain with …; experiment: Biacore SPR; binding relative to GpH7-A5/GpH7-B3/GpL16-k0 (=100)
[2] = target: T2, FcγRIIa R (FcγRIIa, allotype R, Arg at …); experiment: as above
[3] = target: T2, FcγRIIa R (FcγRIIa, allotype R, Arg at …); experiment: Biacore SPR; He/Con_2aR divided by He/Con_2b (FcγRIIb)
Description: The heterodimerized antibodies He Abs in which one of the H chains was introduced with an alteration were assayed for their binding activities to each activating FcγR and inhibitory FcγR according to the method described in Example 4. […] The activating FcγRs in FIGS. 26, 27, 28, and 29 are FcγRIa, FcγRIIa (R), FcγRIIa (H), and FcγRIIIa, respectively.
Analysis of interaction between objective antibody and the FcγR was carried out using Biacore T100 (GE Healthcare). HBS-EP+ (GE Healthcare) was used as the running buffer, and the measurement temperature was set to 25° C. Chips produced by immobilizing the antigen peptide by the amine coupling method to a Series S Sencor Chip CM5 (GE Healthcare), or alternatively, chips produced by allowing preliminarily biotinylated antigen peptides to interact with and immobilize onto a Series S Sensor Chip SA (certified) (GE Healthcare) were used. Antibodies of interest were captured onto an antigen peptide-immobilized chip, and allowed to interact to each FcγR diluted with running buffer. To regenerate and repeatedly use the chip, the antibodies captured on the chip were washed off by reacting 10 mM glycine-HCl, pH 1.5.

| Binder | He/Con_2b (IIb binding) [1] | He/Con_2aR (IIaR binding) [2] | IIaR/IIb (He_2aR/2b) [3] |
| --- | --- | --- | --- |
| heterodimerized antibody GpH7-A5/GpH7-B3 variant N325_20W/GpL16-k0 (antibody, human IgG1, kappa, He Ab: anti-glypican-3 IgG1, alteration in one H chain only; also called He Ab) heavy 1: not shown heavy 2: not shown light: DIVMTQSPLSLPVTPGEPASISCQASESLVHSNRNTYLHWYLQKPGQSPQLLIYKVSNRFSGVPDRFSGSGSGTDFTLKISRVEAEDVGVYYCSQNTHVPPTFGQGTKVEIERTVAAPSVFIFPPSDEQLKSGTASVVCLLNNFYPREAKVQWKVDNALQSGNSQESVTEQDSKDSTYSLSSTLTLSKADYEKHKVYACEVTHQGLSSPVTKSFNRGEC | 169 % of control | 134 % of control | 0.79 |
| heterodimerized antibody GpH7-A5/GpH7-B3 variant S239_09D/GpL16-k0 (antibody, human IgG1, kappa, He Ab: anti-glypican-3 IgG1, alteration in one H chain only; also called He Ab) heavy 1: not shown heavy 2: not shown light: DIVMTQSPLSLPVTPGEPASISCQASESLVHSNRNTYLHWYLQKPGQSPQLLIYKVSNRFSGVPDRFSGSGSGTDFTLKISRVEAEDVGVYYCSQNTHVPPTFGQGTKVEIERTVAAPSVFIFPPSDEQLKSGTASVVCLLNNFYPREAKVQWKVDNALQSGNSQESVTEQDSKDSTYSLSSTLTLSKADYEKHKVYACEVTHQGLSSPVTKSFNRGEC | 206 % of control | 137 % of control | 0.66 |
| heterodimerized antibody GpH7-A5/GpH7-B3 variant P238_10E/GpL16-k0 (antibody, human IgG1, kappa, He Ab: anti-glypican-3 IgG1, alteration in one H chain only; also called He Ab) heavy 1: not shown heavy 2: not shown light: DIVMTQSPLSLPVTPGEPASISCQASESLVHSNRNTYLHWYLQKPGQSPQLLIYKVSNRFSGVPDRFSGSGSGTDFTLKISRVEAEDVGVYYCSQNTHVPPTFGQGTKVEIERTVAAPSVFIFPPSDEQLKSGTASVVCLLNNFYPREAKVQWKVDNALQSGNSQESVTEQDSKDSTYSLSSTLTLSKADYEKHKVYACEVTHQGLSSPVTKSFNRGEC | 232 % of control | 151 % of control | 0.65 |

The next lines start with the values.

| He/Con_2b (IIb binding) [1] | He/Con_2aR (IIaR binding) [2] | IIaR/IIb (He_2aR/2b) [3] | Binder |
| --- | --- | --- | --- |
| 379 % of control | 175 % of control | 0.46 | heterodimerized antibody GpH7-A5/GpH7-B3 variant S267_10E/GpL16-k0 (antibody, human IgG1, kappa, He Ab: anti-glypican-3 IgG1, alteration in one H chain only; also called He Ab) heavy 1: not shown heavy 2: not shown light: DIVMTQSPLSLPVTPGEPASISCQASESLVHSNRNTYLHWYLQKPGQSPQLLIYKVSNRFSGVPDRFSGSGSGTDFTLKISRVEAEDVGVYYCSQNTHVPPTFGQGTKVEIERTVAAPSVFIFPPSDEQLKSGTASVVCLLNNFYPREAKVQWKVDNALQSGNSQESVTEQDSKDSTYSLSSTLTLSKADYEKHKVYACEVTHQGLSSPVTKSFNRGEC |
| 192 % of control | 111 % of control | 0.58 | heterodimerized antibody GpH7-A5/GpH7-B3 variant S267_07I/GpL16-k0 (antibody, human IgG1, kappa, He Ab: anti-glypican-3 IgG1, alteration in one H chain only; also called He Ab) heavy 1: not shown heavy 2: not shown light: DIVMTQSPLSLPVTPGEPASISCQASESLVHSNRNTYLHWYLQKPGQSPQLLIYKVSNRFSGVPDRFSGSGSGTDFTLKISRVEAEDVGVYYCSQNTHVPPTFGQGTKVEIERTVAAPSVFIFPPSDEQLKSGTASVVCLLNNFYPREAKVQWKVDNALQSGNSQESVTEQDSKDSTYSLSSTLTLSKADYEKHKVYACEVTHQGLSSPVTKSFNRGEC |
| 181 % of control | 135 % of control | 0.75 | heterodimerized antibody GpH7-A5/GpH7-B3 variant S239_10E/GpL16-k0 (antibody, human IgG1, kappa, He Ab: anti-glypican-3 IgG1, alteration in one H chain only; also called He Ab) heavy 1: not shown heavy 2: not shown light: DIVMTQSPLSLPVTPGEPASISCQASESLVHSNRNTYLHWYLQKPGQSPQLLIYKVSNRFSGVPDRFSGSGSGTDFTLKISRVEAEDVGVYYCSQNTHVPPTFGQGTKVEIERTVAAPSVFIFPPSDEQLKSGTASVVCLLNNFYPREAKVQWKVDNALQSGNSQESVTEQDSKDSTYSLSSTLTLSKADYEKHKVYACEVTHQGLSSPVTKSFNRGEC |
| 192 % of control | 116 % of control | 0.61 | heterodimerized antibody GpH7-A5/GpH7-B3 variant S267_03V/GpL16-k0 (antibody, human IgG1, kappa, He Ab: anti-glypican-3 IgG1, alteration in one H chain only; also called He Ab) heavy 1: not shown heavy 2: not shown light: DIVMTQSPLSLPVTPGEPASISCQASESLVHSNRNTYLHWYLQKPGQSPQLLIYKVSNRFSGVPDRFSGSGSGTDFTLKISRVEAEDVGVYYCSQNTHVPPTFGQGTKVEIERTVAAPSVFIFPPSDEQLKSGTASVVCLLNNFYPREAKVQWKVDNALQSGNSQESVTEQDSKDSTYSLSSTLTLSKADYEKHKVYACEVTHQGLSSPVTKSFNRGEC |
| 48 % of control | 37.8 % of control | 0.79 | heterodimerized antibody GpH7-A5/GpH7-B3 variant S267_04F/GpL16-k0 (antibody, human IgG1, kappa, He Ab: anti-glypican-3 IgG1, alteration in one H chain only; also called He Ab) heavy 1: not shown heavy 2: not shown light: DIVMTQSPLSLPVTPGEPASISCQASESLVHSNRNTYLHWYLQKPGQSPQLLIYKVSNRFSGVPDRFSGSGSGTDFTLKISRVEAEDVGVYYCSQNTHVPPTFGQGTKVEIERTVAAPSVFIFPPSDEQLKSGTASVVCLLNNFYPREAKVQWKVDNALQSGNSQESVTEQDSKDSTYSLSSTLTLSKADYEKHKVYACEVTHQGLSSPVTKSFNRGEC |
